In the RNAGym collection of RNA variant scans (doi:10.1073/pnas.2313332121):

B1: TPR t1 (parent)
chain: GACCAAUCUGCCCUCAGAGCUCGAGAACAUCUUCGGAUGCAGAGGAGGCAGGCUUCGGUGGCGCGAUAGCGCCAACGUCCUCAACCUCCAAUGCAUCCCACCACAUGAUGAUGCCUGAAGAGCCUUGGUUUUUUG

Variants of: B1
Experiment: polymerase ribozyme fitness, log enrichment relative to wild type (log ratio); higher = more active; in vitro selection for triplet polymerase activity
In short: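 Genotype fitness is the logarithm of its enrichment divided by wild-type enrichment, using inverse-variance-weighted averages of replicates. That logarithm is base 2. Enrichment was measured by Illumina sequencing of input and output libraries from one triplicate in vitro selection round, with frozen incubation at −7 °C, on PCR-built, transcribed mutant libraries of each subunit of a heterodimeric triplet polymerase ribozyme, retaining genotypes with ≥10 input reads and ≥1 read per output.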

Row | Variant | polymerase ribozyme fitness (log ratio)
1 | U30C A37C C73G U96A C115U | -5.56
2 | C104A U112G C123G | -1.23
3 | A2C U54A C72G C104U G113A | -2.82
4 | A16U G127U | -2.81
5 | A37U C40G G63A A66G C82A U109G | -6.22
6 | C3A G57C A90U C114A U132C | -3.92
7 | C8G G10U G69U U81C | -0.318
8 | G44A A84U | -0.594
9 | C8G A18U C22G G117U | -2.97
10 | C53A G63A G93A | -1.34
11 | C12G G48A | -0.668
12 | G42A G93A C114U | -3.01
13 | C62G C79U G110A | -2.71
14 | C8G C56A U125A U133G | -0.732
15 | C3U G44U C82A | -1.68
16 | G42U C53U U59G C89A C124A | -0.557
17 | C20G U32G A90U G93U U109C | -4.13
18 | U7C A27C | -2.46
19 | C11G G60A | 0.811
20 | A5G C22G C73G G93U G110A | -6.4
21 | C101A U106C U133A | -0.867
22 | U7G C12A U32A C73U G113A G120U | -4.58
23 | C13G C34A G39A | -5
24 | G93C C101U C104A | -1.95

Row | Variant | polymerase ribozyme fitness (log ratio)
25 | A43G G69C A90C | -2.1
26 | C13U C79A A90C | -2.88
27 | U55C U59A C88U | -0.406
28 | G48U G58U C72U | 0.601
29 | G47A C70A C82G | -2.41
30 | C22G C28U A37U G48A G110C | -3.85
31 | C12G A74C C89A | -1.6
32 | C79G A121C | 0.144
33 | C11G C15G A90C G110A | -4.74
34 | G42C G61C | -4.07
35 | C79A C123A | -0.392
36 | C12G C64U A75U U116G G122A C124G | 0.593
37 | C8U C53G C56A C86U U96G G117U | -2.48
38 | C73U G110A G117A C124U | -4.95
39 | G17A C28G G48A U96G A100G U112G A121C | -6.43
40 | G69A C86U | -3.19
41 | A105C C114A A121G | -3.08
42 | A29U G44U A111G C124G | -3.58
43 | A18G C20U G93U U109A C115A | -5.78
44 | C79A A105U | -4.41
45 | G35C G61C C98G | -5.36
46 | C28U U92C | -3.43
47 | C70U G127C | -2.15
48 | C40U A41U C72U | -1.91

Row | Variant | polymerase ribozyme fitness (log ratio)
49 | C56A C82G A91C G93C | -3.53
50 | G10U C80U | -0.415
51 | G47C C73U C102U G127U | -5.08
52 | C15U C73U G77A C98A | -8.01
53 | C4U G120A | 0.077
54 | G52C A84G U87C A111G | -2.78
55 | A27C C86A | -4.06
56 | A18U G122U | -2.38
57 | C62G C102U | -4.74
58 | G39A A43U C70U C82U G113C U132C | -3.27
59 | U54C G71U C97G C123U | -4.02
60 | C56A G63A U78C | -4.18
61 | C13G A37G G117C | -4.68
62 | G71A C114A | -1.41
63 | C22U C31G A50U C72G C82A A95G G107C | -5.28
64 | A46U C49U C72A | 0.459
65 | U55G U96A C115U | -2.35
66 | C85A C89U U92G G117A | -4.94
67 | A41C C80U | -1.79
68 | A37C C70U | -0.649
69 | A43U G52C C72U | -2.16
70 | G52U G71U | -0.703
71 | A27G G120C | -0.195
72 | C80A C94A U112C | -2.27

Row | Variant | polymerase ribozyme fitness (log ratio)
73 | U7A C8U G60C | -0.91
74 | C73G A75U A83U | -1.08
75 | A2U G52A C56A C82A A91G A121C | -2.84
76 | U9C G45A G48U | -0.16
77 | A5U G39A G60U C70U | -2.4
78 | U32A G44A G63C U87C | -4.85
79 | G35A U87G | -3.91
80 | A16U G47U G69C | -3.2
81 | C72U U125G | -2.26
82 | C12G A83C | -1.43
83 | C15U C53U G69U | -0.102
84 | G60A C73A A91C G113U | -3.43
85 | G47U C73A C85U | -1.61
86 | C13A C53U C56U U59G | -2.18
87 | A6U G48U C64U U81G | -4.27
88 | C70U U126C | -0.89
89 | C12A A41G | -0.758
90 | C22G A37U U87G | -3.6
91 | C70A A95G | -1.6
92 | C4G U9C A43G G47A C73A | -2.93
93 | G39A U132A | -0.367
94 | C8A U78C U106C C114U | -2.11
95 | A26U C102A | -5.29
96 | A18C C101A | -3.03

Row | Variant | polymerase ribozyme fitness (log ratio)
97 | G57C G61A | -1.82
98 | G42C A50U C76G A111U | -6.27
99 | C8A G35A C123A | -1.9
100 | G60U A108C C124A | -5.47
101 | A27U C73U U131G | -1.71
102 | C22U G71A U78A | -4.62
103 | C49A G61U A83C U129C | -0.881
104 | G39C A43G G48U U54G G93C G113A | -5.27
105 | C13G G19U G71C U112C | -4.61
106 | G10U G58U U78C G122A C124U | 0.946
107 | C11G U109A G110C | -4.59
108 | G10U U14A C40A | -2.63
109 | C4U C114G | -2.65
110 | G93C G113C | -3.08
111 | C13U C40U C124G | 1.61
112 | G48C C53G | -0.405
113 | A118U C123A U130C | -0.0514
114 | C8G A37U A74C C88G G110A | -3.12
115 | A46U C49G | -1.75
116 | C8A C15G A29U | -2.66
117 | U7C C49A G61U A75U U96A | -0.699
118 | G42A G48U C56U C114U U131C | -3.37
119 | A16G C56A C72A C86G G110A U112A | -3.93
120 | C13U C53G | -0.309

Row | Variant | polymerase ribozyme fitness (log ratio)
121 | C12A C82G | -1.17
122 | C124G U131A | 2.2
123 | U7A G110C | -3.41
124 | C56G G69U A100U U130C | -0.344
125 | G44A G110C | -4.8
126 | C11U G35A A37U C124A U132A | -4.07
127 | G35C U59C C124A | -3.15
128 | G10U A26C A74G A90U G120A | -5.63
129 | C72U C102G U133A | -5.27
130 | C11A U30C G47A G63A A121G U131A | -3.75
131 | C3U G117A U126A | -5.16
132 | C13U A66C U106A | -0.839
133 | G17U U133G | -2.64
134 | A37C A43G | -2.56
135 | G63U A83G | -1.76
136 | G52C U54G G69A U87C A100U | -6.57
137 | G17A G63U | -3.9
138 | C56U U78A | -0.32
139 | G71U C82A C88A | -1.39
140 | G42U G77A C88A U92C | -3.21
141 | C28G G60A | -3.53
142 | C85U A121G | 1.61
143 | C79A A84G | -3.26
144 | A2U A27U A74C U87A U112A G127U | -2.94

Row | Variant | polymerase ribozyme fitness (log ratio)
145 | G19U C89U C115A | -6.23
146 | A26G G47A C72U G93C G113A | -6.9
147 | C3U G39U G61A G93C C101A | -3.7
148 | G51C G60C A75U | -2.9
149 | A2G C70A | -1.82
150 | A24G G77U G113U G122U C124A | -6.49
151 | C8A A24C C31U U38A G45U C56G C70G C80A A111U G117C | -6.01
152 | A6C A29U G45A G113U | -4.91
153 | C11U G51A C56G C124A | -0.733
154 | G19U A46C G52C U54C U96C C114A | 0.227
155 | G17C C56G U96A | -5.36
156 | C13G G52C G71A | -3.97
157 | C73A U116A C124A | 0.809
158 | A37G A68G A111C C124G | -3.95
159 | G51U G60U C79G | -1.64
160 | C28G C76U | -3.02
161 | A26U C53U U116G | -6.15
162 | C3A U7A A121G | 1.21
163 | G47A C86A G113A | -2.16
164 | C12G U14A C62A C86A C102A G120C U129A | -7.34
165 | C62G C88G A91U U112A | -5.1
166 | C31U C123G | -2.99
167 | G17A G120C G127U | -1.24
